Target: the molecule itself
Test: crystal structure; non-tagged PAC3 homodimer, 8.0 mg/mL in 20 mM Tris-HCl pH 7.5, 150 mM NaCl; crystals from 30% PEG2000 monomethyl ether, 0.1 M potassium thiocyanate, 20 °C; space group P3(1)21, 0.96 Å

B1: human PAC3 homodimer, non-tagged (natural protein)
chain: MEDTPLVISKQKTEVVCGVPTQVVCTAFSSHILVVVTQFGKMGTLVSLEPSSVASDVSKPVLTTKVLLGQDEPLIHVFAKNLVAFVSQEAGNRAVLLAVAVKDKSMEGLKALREVIRVCQVW
notes: human proteasome-assembling chaperone PAC3; source: E. coli BL21-CodonPlus (DE3)-RIL, purified
binding result: binds

Reference: PMC6539346, “Molecular and Structural Basis of the Proteasome α Subunit Assembly Mechanism Mediated by the Proteasome-Assembling Chaperone PAC3-PAC4 Heterodimer” (International Journal of Molecular Sciences, 2019)
